T1: human Trop-2-ECD-6His fusion protein (human, UniProt P09758 27-274)
T1 construct: Expressed in a human 293 cell line; also called huTrop-2; human Trop-2 antigen
T1 sequence: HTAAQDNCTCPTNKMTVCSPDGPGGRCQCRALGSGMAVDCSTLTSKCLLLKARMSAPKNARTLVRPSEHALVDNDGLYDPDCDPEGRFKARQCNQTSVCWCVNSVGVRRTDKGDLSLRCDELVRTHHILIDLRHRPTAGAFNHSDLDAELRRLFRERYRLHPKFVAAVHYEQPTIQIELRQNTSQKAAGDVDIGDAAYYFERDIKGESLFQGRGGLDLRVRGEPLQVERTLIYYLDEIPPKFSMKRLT

T2: human EPCAM-His (Homo sapiens, UniProt P16422)
T2 sequence (P16422 24-314): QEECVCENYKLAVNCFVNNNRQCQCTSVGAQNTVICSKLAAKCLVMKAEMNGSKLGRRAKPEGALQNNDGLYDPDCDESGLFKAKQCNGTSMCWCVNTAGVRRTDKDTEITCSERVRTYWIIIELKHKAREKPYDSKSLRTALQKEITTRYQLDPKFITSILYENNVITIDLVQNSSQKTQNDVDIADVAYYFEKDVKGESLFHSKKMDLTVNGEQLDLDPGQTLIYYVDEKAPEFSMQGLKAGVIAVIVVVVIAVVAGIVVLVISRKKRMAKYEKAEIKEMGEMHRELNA

T3: human Trop-2-ECD-6His fusion protein (Homo sapiens, UniProt P09758)
T3 construct: made in house; host or cells: human 293 cell line
T3 sequence (P09758 with tags, fused parts or gaps): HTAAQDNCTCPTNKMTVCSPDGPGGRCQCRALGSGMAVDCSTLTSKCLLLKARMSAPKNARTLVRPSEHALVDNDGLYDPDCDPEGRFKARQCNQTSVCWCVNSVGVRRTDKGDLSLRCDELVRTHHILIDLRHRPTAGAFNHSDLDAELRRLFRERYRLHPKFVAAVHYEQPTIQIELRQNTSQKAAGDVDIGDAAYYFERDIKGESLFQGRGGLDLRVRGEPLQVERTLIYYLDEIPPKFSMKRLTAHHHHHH

T4: human Trop-2ECD-6His (Homo sapiens, UniProt P09758)
T4 construct: made in house; host or cells: human 293 cell line
T4 sequence (P09758 with tags, fused parts or gaps): T3 sequence (P09758 with tags, fused parts or gaps)

T5: mouse Trop-2-His (Mus musculus, UniProt Q8BGV3)
T5 sequence (Q8BGV3 25-317): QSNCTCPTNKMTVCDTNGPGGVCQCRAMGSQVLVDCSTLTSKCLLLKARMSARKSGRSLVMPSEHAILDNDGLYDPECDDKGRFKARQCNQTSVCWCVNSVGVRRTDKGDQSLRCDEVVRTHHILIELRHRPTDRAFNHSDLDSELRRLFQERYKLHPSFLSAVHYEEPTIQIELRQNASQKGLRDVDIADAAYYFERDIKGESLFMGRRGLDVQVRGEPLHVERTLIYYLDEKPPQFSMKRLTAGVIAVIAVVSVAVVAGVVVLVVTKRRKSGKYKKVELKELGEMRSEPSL

B1: #125-1-5 (antibody, listed as Mus musculus, V domains shown)
VH: QIQLVQSGPELVKPGASVKMSCKASGYTFTTYVIHWVKQKPGQGLEWIGYINPNNDGTKYNEKFKGKATLISDKSSTTAYMEVRGLTSEDSAVYYCARPHFETHAMDYWGQGTSVTVSS
VL: DIQMTQSPSSFSVSLGDSVTITCKASEDIFNRLAWYQQKPGNAPRLLISGATSLETGVPSRFSGGGSGKEYTLSITSLQNEDVATYYCQQYWNTWTFGGGTKLEIK
B2: humanized IgG #118-2-5 Hu(A1)/LuX (antibody, V domains shown)
VH: QVQLQESGPGLVKPSETLSLTCTVSGFSLTSYGVNWIRQPPGKGLEWIGVMWAGGSTNYNSALMSRVTISVDTSKNQFSLKLSSVTAADTAVYYCARDENWDGAWFAYWGQGTLVTVSS
VL: DIVMTQSPDSLAVSLGERATINCKSSQSLLNSGTRKNYLAWYQQKPGQPPKLLIYWASSRESGVPDRFSGSGSGTDFTLTISSLQAEDVAVYYCKQSYNLFTFGGGTKVEIK
notes: Second round of humanization

What was measured:
[1] = biological target: T1, human Trop-2-ECD-6His fusion protein; experiment: ELISA on immobilized Trop-2-ECD-6His; control, 1 to 1 ratio
[2] = biological target: T1, human Trop-2-ECD-6His fusion protein; experiment: ELISA on immobilized Trop-2-ECD-6His; control, 1 to 10 ratio
[3] = system: Trop-2 positive breast cancer cell line MDA-MB-468; experiment: Internalization assay by flow cytometry (Example 2 protocol); format: cell-based, human; conditions: Table 4; chimeric IgGs; 2 hours at 37° C.; 100 × (MFI4°C - MFI37°C) / MFI4°C
Description: The chimeric IgG1 #118-2-5 and #125-1-5 were further evaluated by internalization assay using Trop-2 positive breast cancer cell line MDA-MB-468. MDA-MB-468 cells were seeded at 1×10^5 cell/well. Next, the chimeric or benchmark IgGs were added to cells in FACS buffer and incubated for 2 hours at 4° C. After incubation, the cells were washed to remove unbound antibody. The cells were then incubated at 37° C. After 2 hours, the cells were dissociated and stained with fluorescent-conjugated […] secondary antibodies for 30 minutes on ice in dark before being analyzed using Beckman flow cytometry system. The fluorescent intensity and cell binding percentage at each time point were analyzed by Beckman flow cytometric software. The amount of chimeric IgGs internalized into cells was determined using the following formula: % internalization rate = 100 × (MFI4°C - MFI37°C) / MFI4°C.

human EPCAM-His = biological target: T2, human EPCAM-His; experiment: Cross-reactivity ELISA, human EPCAM; format: binding; conditions: plate coated with 1 µg/mL antigen
Description: (§1) Cross-reactivity of chimeric IgG #118-2-5 and #125-1-5 to the Trop-2 antigens from different species was assessed by ELISA. In this experiment, a microtiter plate was coated overnight at 4° C. with 50 µL/well of 1 µg/mL human Trop-2ECD-6His, mouse Trop-2-His, cynomolgus Trop-2-His, human EPCAM-His, and a non-related protein. The plate was washed and blocked for 1 hr at 37° C., and then washed with wash buffer. Purified chimeric IgGs appropriately diluted in PBS were added to wells and incubated for 1 hr at 37° C. After washing, bound antibodies were detected using HRP-conjugated goat-anti-human IgG Ab. Color development and absorbance at OD450 nm were read. A non-specific mock mouse IgG and a non-specific mock human IgG were included as the negative controls, while anti-His antibody was used as a positive control.
(§2) The cross-reactivity of purified IgGs to the Trop-2 antigens from different species was tested by ELISA. In this experiment, a microtiter plate was coated overnight at 4° C. with 50 µL/well of 1 µg/mL human Trop-2ECD-6His, mouse Trop-2-His, cynomolgus Trop-2-His, human EPCAM-His, and a non-related protein. The plate was washed and blocked for 1 hr at 37° C., and then washed with wash buffer. Purified anti-Trop-2 antibodies appropriately diluted in PBS were added to wells and incubated for 1 hour at 37° C. After washing, bound antibodies were detected using HRP-conjugated goat-anti-human IgG antibody. Color development and absorbance at OD450 nm were read. A non-specific human IgG1 was included as a negative control, while hRS7 was used as a positive control.

[4] = biological target: T3, human Trop-2-ECD-6His fusion protein; experiment: Antigen binding assay (ELISA) on immobilized Trop-2-ECD-6His; conditions: for OD value, Conditioned Medium 1 to 1 ratio / OD value, Conditioned Medium 1 to 10 ratio: Table 3, ELISA absorbance at 405 nm
Description: Using the HCVR sequence and LCVR sequence of mAbs #118-2-5 and #125-1-5, two murine-human chimeric IgG1 (hereinafter “chimeric IgG1”) was prepared which comprised the heavy chain sequences set forth in SEQ ID NOs: 47 and 49, and the light chain sequences set forth in SEQ ID NOs: 48 and 50. Nucleic acids encoded by SEQ ID NO: 19, 20 and SEQ ID NO: 21, 22 were amplified and inserted into pTT5 to make an expression plasmid of the full-length IgG. The heavy chain and light chain expression plasmids were used to co-transfect 100 mL HEK293-6E cells. The recombinant IgG secreted into to media was purified using protein A affinity. The purified IgG migrated as ~150 kDa band in SDS-PAGE under non-reducing conditions, ~55 kDa and ~30 kDA bands under reducing condition. The purity of the chimeric IgG is >90%. The binding affinity between the chimeric IgGs and a human Trop-2-ECD-6His fusion protein (SEQ ID NO:2) was determined by ELISA. The Trop-2-ECD-6His fusion protein was immobilized on the surface of a microplate wells and incubated with the chimeric IgGs. A secondary enzyme-labeled goat-anti-mouse IgG-AP was then added. After washing, the activity of the microplate well-bound enzyme was measured by adding the substrate. Color development and absorbance at 405 nm were read.

human Trop-2ECD-6His = biological target: T4, human Trop-2ECD-6His; experiment: Cross-reactivity ELISA, human Trop-2; format: binding; conditions: plate coated with 1 µg/mL antigen
Description: as §1
as §2, with “Purified anti-Trop-2 antibodies appropriately diluted in PBS were added to wells and incubated for 1 hour at 37° C.” left out, “A non-specific human IgG1 was included as a negative control, while hRS7 was used as a positive control.” left out

non-related protein = experiment: Cross-reactivity ELISA, non-related protein; format: binding; conditions: plate coated with 1 µg/mL protein
Description: as §1, §2

mouse Trop-2-His = biological target: T5, mouse Trop-2-His; experiment: Cross-reactivity ELISA, mouse Trop-2; format: binding; conditions: plate coated with 1 µg/mL antigen
Description: as §1, §2

cynomolgus Trop-2-His = experiment: Cross-reactivity ELISA, cynomolgus Trop-2; format: binding; conditions: plate coated with 1 µg/mL antigen
Description: as §1
as §2, with “Purified anti-Trop-2 antibodies appropriately diluted in PBS were added to wells and incubated for 1 hour at 37° C.” left out, “A non-specific human IgG1 was included as a negative control, while hRS7 was used as a positive control.” left out

[5] = biological target: human Trop-2 on Trop-2 positive cancer cells (human) (UniProt P09758); experiment: cell-based or functional assay
[6] = biological target: T1, human Trop-2-ECD-6His fusion protein; experiment: antigen binding ELISA on immobilized human Trop-2-ECD-6His

Molecule	OD (absorbance at 405 nm) [1]	OD (absorbance at 405 nm) [2]	Internalization rate [3]	recognition of hEPCAM (ELISA, OD450 nm) (human EPCAM-His)	recognition of hEPCAM (ELISA, OD450 nm) (human EPCAM-His; listed as benchmark IgG)	OD value, Conditioned Medium 1 to 1 ratio [4]	OD value, Conditioned Medium 1 to 10 ratio [4]	binding to human Trop-2 antigen (ELISA, OD450 nm) (human Trop-2ECD-6His)	recognition of the non-related protein (ELISA, OD450 nm) (non-related protein)	recognition of the non-related protein (ELISA, OD450 nm) (non-related protein; listed as benchmark IgG)	recognition of mouse Trop-2 (ELISA, OD450 nm) (mouse Trop-2-His)	recognition of mouse Trop-2 (ELISA, OD450 nm) (mouse Trop-2-His; listed as benchmark IgG)	binding to cynomolgus Trop-2 antigen (ELISA, OD450 nm) (cynomolgus Trop-2-His)	binding affinity to Trop 2 compared with benchmark hRS7 ([4]; in words, chimeric IgGs, see OD value in Table 3)	Internalization rate (flow cytometry, MDA-MB-468 cells) [5]	EC50 [6]
BSA (from UniProt P02769 25-607)	0.059 OD	0.058 OD	–	–	–	–	–	–	–	–	–	–	–	–	–	–
hRS7: anti-Trop2 antibody used in sacituzumab govitecan (IMMU-132); used as a benchmark antibody [reference compound]	–	–	17.62%	some non-specific binding	did not recognize	1.339	1.457	able to bind	some non-specific binding	did not recognize	some non-specific binding	did not recognize	able to bind	–	–	–
B1	–	–	4.70%	did not recognize	–	1.572	1.539	able to bind	did not recognize	–	did not recognize	–	able to bind	higher binding affinity than the benchmark reference antibody hRS7	–	–
B2	–	–	–	–	–	–	–	–	–	–	–	–	–	–	56%	0.28 nM

From patent publication US20230235080A1, “TROPHOBLAST CELL-SURFACE ANTIGEN-2 (TROP-2) ANTIBODIES” (Bionecure Therapeutics, Inc., priority 2020, published 2023)
